Patent publication US5344846A, “Compositions and methods for inhibiting deoxyhypusine synthase and the growth of cells” (The United States of America as represented by the …, priority 1992, dated 1994)

Substrate: NCCCCNCCCN
Assay: Inhibition of deoxyhypusine synthase ([3H]deoxyhypusine formation from [3H]spermidine), IC50/Ki
Type: biochemical, rat
Conditions: pH 9.3; 37.0 °C
Method: A typical assay mixture included 0.2M glycine, 1 mM dithiothreitol, 0.5 mM NAD^+, 2.4 micromolar (μM) [1,8-^3 H] spermidine, 1 μM ec-eIF-5A(Lys), 25 micrograms (μg) bovine serum albumin, and 3-15 units of enzyme in a total volume of 20 microliters (μl). Incubations were carried out at pH 9.3 and 37° C. for 1 hour. […] Percent inhibition was plotted versus log inhibitor concentration in order to obtain graphic estimates of IC50 values, i.e., the concentrations inhibiting [^3 H]deoxyhypusine production by 50%. The IC50 values reported in the tables were calculated by fitting the data points to equation 1 where x=% inhibition and I is the inhibitor concentration. […] The nature of the inhibition was determined by plotting reciprocal velocities of [^3 H]deoxyhypusine production against reciprocals of [^3 H]spermidine concentrations at a constant fixed level of ec-eIF-5A(Lys) (1 μM) and at set inhibitor concentrations. […] Estimates of Ki values were made by fitting the data to equation 2; wherein v is the velocity of the reaction, V is the maximum velocity, S is the substrate concentration, Km is Michaeli's constant, Ki is the inhibition constant, and I is the inhibitor concentration.

B1: deoxyhypusine synthase from rat testis (Rattus norvegicus) (protein)
chain: MEGTPSGAAPSSALAAVLKHSSALPPESAQVQGYDFNRGVDYHALLEAYGTTGFQATNFGRAVQQVNAMIEKKLEPLAVDEDHHEDLTQSRRPLTGCTIFLGYTSNLISSGIRETIRYLVQHNMVDVLVTTAGGVEEDLIKCLAPTYLGEFSLRGKELRENGINRIGNLLVPNDNYCKFEDWLMPILDQMVQEQNTEGVKWTPSKMISRLGKEINNPESVYYWAHKNHIPVLSPALTDGSLGDMIFFHSYKNPGLVLDIVEDLRLINMQAIFAKRTGMIILGGGVVKHHIANANLMRNGADYAVYINTAQEFDGSDSGARPDEAVSWGKIRMDAQPVKVYADASLVFPLLVAETFAQKADAFRAEKNED
notes: as catalyzed by deoxyhypusine synthase from rat testis; from tissue; host or cells: rat testis
- Km: 4.5 ± 0.7 µM
